In patent US20160074469A1:

Target: human MC1r (melanocortin receptor type 1) (human) (UniProt Q01726)
Test: cell-based or functional assay

Sequence of UniProt Q01726 (Q01726 whole entry): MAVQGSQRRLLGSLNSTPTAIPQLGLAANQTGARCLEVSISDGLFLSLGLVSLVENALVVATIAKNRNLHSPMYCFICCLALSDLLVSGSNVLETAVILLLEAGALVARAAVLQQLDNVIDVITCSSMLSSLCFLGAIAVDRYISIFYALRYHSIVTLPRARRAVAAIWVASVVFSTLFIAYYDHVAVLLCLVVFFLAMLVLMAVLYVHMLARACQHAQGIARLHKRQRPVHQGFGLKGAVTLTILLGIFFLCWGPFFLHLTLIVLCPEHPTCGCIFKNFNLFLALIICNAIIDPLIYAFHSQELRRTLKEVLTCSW

B1: Ac(Lys)6-αMSH (Ac(Lys)6-Ser-Tyr-Ser-Met-Glu-His-Phe-Arg-Trp-Gly-Lys-Pro-Val-NH2) (peptide)
peptide: Ac-KKKKKKSYSMEHFRWGKPV-NH2
Question: Which results are given for B1?
Answer: EC50, cAMP production: 2.12 nM; Emax (max efficacy expressed as percent of αMSH), cAMP production: 72 % of αMSH
